Results published in US20260250398A1 (published 2026).

How the values were obtained:
Assay in all cases: BLI; avid
ANT 99 = molecular target: ANT 99
ANT 98 = molecular target: ANT 98
ANT 80 = molecular target: ANT 80

Kd (ANT 99): 0.4 nM
Kd (ANT 98): 2 nM
Kd (ANT 80): 0.05 nM
B1: FZD5 (receptor)
chain: ASKAPVCQEITVPMCRGIGYNLTHMPNQFNHDTQDEAGLEVHQFWPLVEIQCSPDLRFFLCSMYTPICLPDYHKPLPPCRSVCERAKAGCSPLMRQYGFAWPERMSCDRLPVLGRDAEVLCMDYNRSEATTAPPRPFPAKP
